Measurements published in patent US20220305006A1, “COMPOSITIONS AND METHODS FOR THE TREATMENT OF NEUROLOGICAL DISEASES AND DISORDERS” (The Regents of the University of California, priority 2019, published 2022).

Assays:
Assay in all cases: cell-based or functional assay
[1] = target: BACE1 expressed from a transfected plasmid in 293T cells (NRG1 and PSGL1 assays)
[2] = target: Recombinant Human Cathepsin D (human) (UniProt P07339)
[3] = target: BACE in CHO-7W cells (Chinese hamster ovary cells stably transfected with wildtype human APP)

Sequence of Recombinant Human Cathepsin D (human) (P07339 65-412): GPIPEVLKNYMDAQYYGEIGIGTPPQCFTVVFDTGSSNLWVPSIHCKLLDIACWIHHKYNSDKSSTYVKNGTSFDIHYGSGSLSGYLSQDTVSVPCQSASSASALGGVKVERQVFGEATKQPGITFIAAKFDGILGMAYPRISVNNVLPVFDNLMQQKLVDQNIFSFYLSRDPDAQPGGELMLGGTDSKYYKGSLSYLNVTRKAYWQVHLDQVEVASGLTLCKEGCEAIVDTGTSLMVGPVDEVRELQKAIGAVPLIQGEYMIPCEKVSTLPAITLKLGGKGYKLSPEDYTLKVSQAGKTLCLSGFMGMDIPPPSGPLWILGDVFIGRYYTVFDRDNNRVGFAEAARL

| Substance | NRG1 cleavage by BACE in co-transfected 293T cells (secreted alkaline phosphatase), EC50 [1] [µM] | PSGL1 cleavage by BACE in co-transfected 293T cells (secreted alkaline phosphatase), EC50 [1] [µM] | Cat D activity (fluorogenic substrate), IC50 [2] [µM] | decrease of BACE cleavage product sAPPβ from CHO-7W cells, EC50 [3] [µM] |
| --- | --- | --- | --- | --- |
| BACE inhibitor 1 (statine BACE inhibitor 1) (peptide) | > 10 | > 10 | < 0.01 |  |
| recombinant sAPPα, human, amino acids 19-613 (from UniProt P05067 19-613) | > 10 | > 10 |  | < 5 |
